Laboratory results taken from patent publication US20180155451A1 (published 2018).

B1: GpH7-A5/GpH7-B3 variant A330_09D/GpL16-k0 (He Ab) (antibody, human IgG1, kappa)
heavy 1: not shown
heavy 2: not shown
light: DIVMTQSPLSLPVTPGEPASISCQASESLVHSNRNTYLHWYLQKPGQSPQLLIYKVSNRFSGVPDRFSGSGSGTDFTLKISRVEAEDVGVYYCSQNTHVPPTFGQGTKVEIERTVAAPSVFIFPPSDEQLKSGTASVVCLLNNFYPREAKVQWKVDNALQSGNSQESVTEQDSKDSTYSLSSTLTLSKADYEKHKVYACEVTHQGLSSPVTKSFNRGEC
notes: He Ab: alteration only in the GpH7-B3 chain
B2: GpH7-A5/GpH7-B3 variant P271_13S/GpL16-k0 (He Ab) (antibody, human IgG1, kappa)
heavy 1: not shown
heavy 2: not shown
light: B1 light
notes: as for B1
B3: GpH7-A5/GpH7-B3 variant S267_03V/GpL16-k0 (He Ab) (antibody, human IgG1, kappa)
heavy 1: not shown
heavy 2: not shown
light: B1 light
notes: as for B1
B4: GpH7-A5/GpH7-B3 variant S298_16H/GpL16-k0 (He Ab) (antibody, human IgG1, kappa)
heavy 1: not shown
heavy 2: not shown
light: B1 light
notes: as for B1
B5: GpH7-A5/GpH7-B3 variant S298_18N/GpL16-k0 (He Ab) (antibody, human IgG1, kappa)
heavy 1: not shown
heavy 2: not shown
light: B1 light
notes: as for B1
B6: GpH7-A5/GpH7-B3 variant S324_02A/GpL16-k0 (He Ab) (antibody, human IgG1, kappa)
heavy 1: not shown
heavy 2: not shown
light: B1 light
notes: as for B1
B7: GpH7-A5/GpH7-B3 variant E333_13S/GpL16-k0 (He Ab) (antibody, human IgG1, kappa)
heavy 1: not shown
heavy 2: not shown
light: B1 light
notes: as for B1
B8: GpH7-A5/GpH7-B3 variant P271_11K/GpL16-k0 (He Ab) (antibody, human IgG1, kappa)
heavy 1: not shown
heavy 2: not shown
light: B1 light
notes: as for B1
B9: GpH7-A5/GpH7-B3 variant K334_10E/GpL16-k0 (He Ab) (antibody, human IgG1, kappa)
heavy 1: not shown
heavy 2: not shown
light: B1 light
notes: as for B1
B10: GpH7-A5/GpH7-B3 variant S239_09D/GpL16-k0 (He Ab) (antibody, human IgG1, kappa)
heavy 1: not shown
heavy 2: not shown
light: B1 light
notes: as for B1
B11: GpH7-A5/GpH7-B3 variant S267_09D/GpL16-k0 (He Ab) (antibody, human IgG1, kappa)
heavy 1: not shown
heavy 2: not shown
light: B1 light
notes: as for B1
B12: GpH7-A5/GpH7-B3 variant S324_20W/GpL16-k0 (He Ab) (antibody, human IgG1, kappa)
heavy 1: not shown
heavy 2: not shown
light: B1 light
notes: as for B1
B13: GpH7-A5/GpH7-B3 variant E269_08L/GpL16-k0 (He Ab) (antibody, human IgG1, kappa)
heavy 1: not shown
heavy 2: not shown
light: B1 light
notes: as for B1
B14: GpH7-A5/GpH7-B3 variant A330_14T/GpL16-k0 (He Ab) (antibody, human IgG1, kappa)
heavy 1: not shown
heavy 2: not shown
light: B1 light
notes: as for B1
B15: GpH7-A5/GpH7-B3 variant I336_02A/GpL16-k0 (He Ab) (antibody, human IgG1, kappa)
heavy 1: not shown
heavy 2: not shown
light: B1 light
notes: as for B1
B16: GpH7-A5/GpH7-B3 variant Q295_05P/GpL16-k0 (He Ab) (antibody, human IgG1, kappa)
heavy 1: not shown
heavy 2: not shown
light: B1 light
notes: as for B1
B17: GpH7-A5/GpH7-B3 variant P271_03V/GpL16-k0 (He Ab) (antibody, human IgG1, kappa)
heavy 1: not shown
heavy 2: not shown
light: B1 light
notes: as for B1
B18: GpH7-A5/GpH7-B3 variant I336_10E/GpL16-k0 (He Ab) (antibody, human IgG1, kappa)
heavy 1: not shown
heavy 2: not shown
light: B1 light
notes: as for B1
B19: GpH7-A5/GpH7-B3 variant S337_01G/GpL16-k0 (He Ab) (antibody, human IgG1, kappa)
heavy 1: not shown
heavy 2: not shown
light: B1 light
notes: as for B1
B20: GpH7-A5/GpH7-B3 variant S298_10E/GpL16-k0 (He Ab) (antibody, human IgG1, kappa)
heavy 1: not shown
heavy 2: not shown
light: B1 light
notes: as for B1
B21: GpH7-A5/GpH7-B3 variant I336_03V/GpL16-k0 (He Ab) (antibody, human IgG1, kappa)
heavy 1: not shown
heavy 2: not shown
light: B1 light
notes: as for B1
B22: GpH7-A5/GpH7-B3 variant I336_18N/GpL16-k0 (He Ab) (antibody, human IgG1, kappa)
heavy 1: not shown
heavy 2: not shown
light: B1 light
notes: as for B1
B23: GpH7-A5/GpH7-B3 variant K326_15Y/GpL16-k0 (He Ab) (antibody, human IgG1, kappa)
heavy 1: not shown
heavy 2: not shown
light: B1 light
notes: as for B1
B24: GpH7-A5/GpH7-B3 variant K326_16H/GpL16-k0 (He Ab) (antibody, human IgG1, kappa)
heavy 1: not shown
heavy 2: not shown
light: B1 light
notes: as for B1
B25: GpH7-A5/GpH7-B3 variant S324_14T/GpL16-k0 (He Ab) (antibody, human IgG1, kappa)
heavy 1: not shown
heavy 2: not shown
light: B1 light
notes: as for B1
B26: GpH7-A5/GpH7-B3 variant S298_15Y/GpL16-k0 (He Ab) (antibody, human IgG1, kappa)
heavy 1: not shown
heavy 2: not shown
light: B1 light
notes: as for B1
B27: GpH7-A5/GpH7-B3 variant S298_03V/GpL16-k0 (He Ab) (antibody, human IgG1, kappa)
heavy 1: not shown
heavy 2: not shown
light: B1 light
notes: as for B1
B28: GpH7-A5/GpH7-B3 variant S298_14T/GpL16-k0 (He Ab) (antibody, human IgG1, kappa)
heavy 1: not shown
heavy 2: not shown
light: B1 light
notes: as for B1
B29: GpH7-A5/GpH7-B3 variant Q295_02A/GpL16-k0 (He Ab) (antibody, human IgG1, kappa)
heavy 1: not shown
heavy 2: not shown
light: B1 light
notes: as for B1
B30: GpH7-A5/GpH7-B3 variant P271_07I/GpL16-k0 (He Ab) (antibody, human IgG1, kappa)
heavy 1: not shown
heavy 2: not shown
light: B1 light
notes: as for B1

The binders below were run against T1, FcγRIa extracellular domain with C-terminal His tag (human, UniProt P12314 16-292) (assay: SPR Biacore, antibody captured, FcγRIa analyte; vs GpH7-A5/GpH7-B3/GpL16-k0 = 100).
T1 construct: extracellular domain; Expressed in FreeStyle293 cells; analyte in Biacore; also called FcgRI; FcgRIa
T1 sequence (P12314 16-292): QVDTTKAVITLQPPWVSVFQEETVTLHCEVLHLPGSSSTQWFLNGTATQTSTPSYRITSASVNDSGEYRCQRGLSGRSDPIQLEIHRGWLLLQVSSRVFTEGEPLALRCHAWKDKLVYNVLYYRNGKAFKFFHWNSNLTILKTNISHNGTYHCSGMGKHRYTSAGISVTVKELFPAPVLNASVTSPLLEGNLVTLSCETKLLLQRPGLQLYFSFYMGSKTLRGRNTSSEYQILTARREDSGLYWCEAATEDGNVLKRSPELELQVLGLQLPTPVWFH

Compared with B1, B2 is lower in He/Con_1a: 109 relative (control = 100) for the first, 102 relative (control = 100) for the second.

Compared with B3, B4 is higher in He/Con_1a: 106 relative (control = 100) for the first, 109 relative (control = 100) for the second.

Compared with B5, B6 is lower in He/Con_1a: 108 relative (control = 100) for the first, 103 relative (control = 100) for the second.

B7 and B8 are the same in He/Con_1a: 103 relative (control = 100) for the first, 103 relative (control = 100) for the second.

Compared with B9, B10 is lower in He/Con_1a: 110 relative (control = 100) for the first, 101 relative (control = 100) for the second.

Compared with B11, B12 is higher in He/Con_1a: 110 relative (control = 100) for the first, 114 relative (control = 100) for the second.

Compared with B13, B14 is higher in He/Con_1a: 104 relative (control = 100) for the first, 105 relative (control = 100) for the second.

First: B15
Second: B16
The He/Con_1a of the first is higher: 106 relative (control = 100) for the first, 103 relative (control = 100) for the second.

Compared with B17, B18 is higher in He/Con_1a: 102 relative (control = 100) for the first, 108 relative (control = 100) for the second.

Compared with B19, B20 is higher in He/Con_1a: 107 relative (control = 100) for the first, 108 relative (control = 100) for the second.

Compared with B21, B22 is higher in He/Con_1a: 105 relative (control = 100) for the first, 108 relative (control = 100) for the second.

First: B23
Second: B24
The He/Con_1a of the first is higher: 106 relative (control = 100) for the first, 103 relative (control = 100) for the second.

First: B25
Second: B26
The He/Con_1a of the first is higher: 121 relative (control = 100) for the first, 107 relative (control = 100) for the second.

First: B27
Second: B28
The He/Con_1a of the first is higher: 110 relative (control = 100) for the first, 107 relative (control = 100) for the second.

First: B29
Second: B30
The He/Con_1a of the first is higher: 104 relative (control = 100) for the first, 102 relative (control = 100) for the second.
